From paper PMC9475542 (2022)

Molecular target: DNMT1 (Homo sapiens, UniProt P26358)
Assay: ELISA

Sequence of DNMT1 (P26358 whole entry): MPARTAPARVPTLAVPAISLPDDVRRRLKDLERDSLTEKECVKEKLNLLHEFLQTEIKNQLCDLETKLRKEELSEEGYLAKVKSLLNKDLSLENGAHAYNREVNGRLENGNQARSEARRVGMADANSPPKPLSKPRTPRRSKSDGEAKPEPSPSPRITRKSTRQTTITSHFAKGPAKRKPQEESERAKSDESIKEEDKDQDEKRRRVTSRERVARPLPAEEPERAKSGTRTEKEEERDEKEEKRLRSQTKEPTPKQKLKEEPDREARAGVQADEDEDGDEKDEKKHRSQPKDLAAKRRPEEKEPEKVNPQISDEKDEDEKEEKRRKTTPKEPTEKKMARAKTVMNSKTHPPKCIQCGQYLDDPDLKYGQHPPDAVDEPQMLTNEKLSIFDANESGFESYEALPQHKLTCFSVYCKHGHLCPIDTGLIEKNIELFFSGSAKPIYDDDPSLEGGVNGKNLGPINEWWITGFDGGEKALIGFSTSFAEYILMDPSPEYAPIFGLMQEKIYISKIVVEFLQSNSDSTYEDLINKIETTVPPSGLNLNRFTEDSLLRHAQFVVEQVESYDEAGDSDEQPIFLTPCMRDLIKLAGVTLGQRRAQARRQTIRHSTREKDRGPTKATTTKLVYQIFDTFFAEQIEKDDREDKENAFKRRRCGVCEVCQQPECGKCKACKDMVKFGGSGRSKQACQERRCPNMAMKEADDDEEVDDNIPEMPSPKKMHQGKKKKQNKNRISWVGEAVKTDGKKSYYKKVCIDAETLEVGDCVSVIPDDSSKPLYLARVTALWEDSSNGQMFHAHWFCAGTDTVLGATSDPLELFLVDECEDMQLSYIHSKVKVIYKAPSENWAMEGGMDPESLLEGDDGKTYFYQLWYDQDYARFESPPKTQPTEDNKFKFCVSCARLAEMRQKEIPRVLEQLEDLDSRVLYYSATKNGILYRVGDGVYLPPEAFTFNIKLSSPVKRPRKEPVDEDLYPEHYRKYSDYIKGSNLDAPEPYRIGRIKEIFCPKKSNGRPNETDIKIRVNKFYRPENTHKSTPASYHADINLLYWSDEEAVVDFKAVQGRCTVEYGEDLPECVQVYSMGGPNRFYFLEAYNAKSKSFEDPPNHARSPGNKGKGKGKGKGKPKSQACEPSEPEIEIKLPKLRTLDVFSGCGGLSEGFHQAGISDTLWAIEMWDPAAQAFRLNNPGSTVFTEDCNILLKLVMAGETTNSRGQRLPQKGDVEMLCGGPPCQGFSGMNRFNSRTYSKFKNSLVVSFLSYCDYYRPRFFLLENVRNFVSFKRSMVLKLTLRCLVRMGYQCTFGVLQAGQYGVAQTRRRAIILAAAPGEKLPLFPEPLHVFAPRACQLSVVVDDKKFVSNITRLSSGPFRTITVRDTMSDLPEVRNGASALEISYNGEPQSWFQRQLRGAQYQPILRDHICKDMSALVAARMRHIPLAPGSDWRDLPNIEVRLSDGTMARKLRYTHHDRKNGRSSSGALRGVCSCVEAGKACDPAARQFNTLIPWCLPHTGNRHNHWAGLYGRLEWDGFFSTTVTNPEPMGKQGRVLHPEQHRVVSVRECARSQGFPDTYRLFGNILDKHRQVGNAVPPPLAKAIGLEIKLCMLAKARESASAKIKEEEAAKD

Kd: ~150 nM
B1: CD133 (protein)
chain: GGQPSSTDAPKAWNYELPATNYETQDSHKAGPIGILFELVHIFLYVVQPRDFPEDTLRKFLQKAYESKIDYDKPETVILGLKIVYYEAGIILCCVLGLLFIILMPLVGYFFCMCRCCNKCGGEMHQRQKENGPFLRKCFAISLLVICIIISIGIFYGFVANHQVRTRIKRSRKLADSNFKDLRTLLNETPEQIKYILAQYNTTKDKAFTDLNSINSVLGGGILDRLRPNIIPVLDEIKSMATAIKETKEALENMNSTLKSLHQQSTQLSSSLTSVKTSLRSSLNDPLCLVHPSSETCNSIRLSLSQLNSNPELRQLPPVDAELDNVNNVLRTDLDGLVQQGYQSLNDIPDRVQRQTTTVVAGIKRVLNSIGSDIDNVTQRLPIQDILSAFSVYVNNTESYIHRNLPTLEEYDSYWWLGGLVICSLLTLIVIFYYLGLLCGVCGYDRHATPTTRGCVSNTGGVFLMVGVGLSFLFCWILMIIVVLTFVFGANVEKLICEPYTSKELFRVLDTPYLLNEDWEYYLSGKLFNKSKMKLTFEQVYSDCKKNRGTYGTLHLQNSFNISEHLNINEHTGSISSELESLKVNLNIFLLGAAGRKNLQDFAACGIDRMNYDSYLAQTGKSPAGVNLLSFAYDLEAKANSLPPGNLRNSLKRDAQTIKTIHQQRVLPIEQSLSTLYQSVKILQRTGNGLLERVTRILASLDFAQNFITNNTSSVIIEETKKYGRTIIGYFEHYLQWIEFSISEKVASCKPVATALDTAVDVFLCSYIIDPLNLFWFGIGKATVFLLPALIFAVKLAKYYRRMDSEDVYDDVETIPMKNMENGNNGYHKDHVYGIHNPVMTSPSQH
